Reference: PMC3532599, “Structural and Functional Integration of the PLCγ Interaction Domains Critical for Regulatory Mechanisms and Signaling Deregulation” (Structure(London, England:1993), 2012)
Changes are numbered by the printed parent chain. Numbers in names are those of the source.

T1: PLCγ1 nSH2-cSH2 Y771F,Y775F (545–790) phosphorylated on Y783 (human, UniProt P19174 545-790, Y771F | Y775F, phosphotyrosine at 783)
T1 construct: PLCγ1, tandem nSH2-cSH2 with the cSH2-SH3 linker, residues 545-790; residue numbering is for human PLCγ1; also called nSH2-cSH2^Y771F,Y775F,pY783; nSH2cSH2^pY783
T1 sequence (looked up): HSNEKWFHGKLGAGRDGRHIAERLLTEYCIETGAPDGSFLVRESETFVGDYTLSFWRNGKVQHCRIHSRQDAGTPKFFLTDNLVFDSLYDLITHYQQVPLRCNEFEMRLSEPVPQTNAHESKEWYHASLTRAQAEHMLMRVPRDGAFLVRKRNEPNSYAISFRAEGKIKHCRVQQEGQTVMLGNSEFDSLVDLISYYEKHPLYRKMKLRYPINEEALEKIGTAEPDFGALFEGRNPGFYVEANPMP

T2: PLCγ1 tandem nSH2-cSH2 domains, wild type (human, UniProt P19174 545-790)
T2 construct: PLCγ1 (phospholipase C gamma 1), tandem nSH2 and cSH2 domains with part of the cSH2-SH3 linker; residue numbering is for human PLCγ1; also called nSH2-cSH2^wt; nSH2cSH2^WT
T2 sequence: T1 sequence (looked up) with F227Y, F231Y

T3: PLCγ1 cSH2 domain, wild type (human)
T3 sequence (P19174 whole entry, looked up): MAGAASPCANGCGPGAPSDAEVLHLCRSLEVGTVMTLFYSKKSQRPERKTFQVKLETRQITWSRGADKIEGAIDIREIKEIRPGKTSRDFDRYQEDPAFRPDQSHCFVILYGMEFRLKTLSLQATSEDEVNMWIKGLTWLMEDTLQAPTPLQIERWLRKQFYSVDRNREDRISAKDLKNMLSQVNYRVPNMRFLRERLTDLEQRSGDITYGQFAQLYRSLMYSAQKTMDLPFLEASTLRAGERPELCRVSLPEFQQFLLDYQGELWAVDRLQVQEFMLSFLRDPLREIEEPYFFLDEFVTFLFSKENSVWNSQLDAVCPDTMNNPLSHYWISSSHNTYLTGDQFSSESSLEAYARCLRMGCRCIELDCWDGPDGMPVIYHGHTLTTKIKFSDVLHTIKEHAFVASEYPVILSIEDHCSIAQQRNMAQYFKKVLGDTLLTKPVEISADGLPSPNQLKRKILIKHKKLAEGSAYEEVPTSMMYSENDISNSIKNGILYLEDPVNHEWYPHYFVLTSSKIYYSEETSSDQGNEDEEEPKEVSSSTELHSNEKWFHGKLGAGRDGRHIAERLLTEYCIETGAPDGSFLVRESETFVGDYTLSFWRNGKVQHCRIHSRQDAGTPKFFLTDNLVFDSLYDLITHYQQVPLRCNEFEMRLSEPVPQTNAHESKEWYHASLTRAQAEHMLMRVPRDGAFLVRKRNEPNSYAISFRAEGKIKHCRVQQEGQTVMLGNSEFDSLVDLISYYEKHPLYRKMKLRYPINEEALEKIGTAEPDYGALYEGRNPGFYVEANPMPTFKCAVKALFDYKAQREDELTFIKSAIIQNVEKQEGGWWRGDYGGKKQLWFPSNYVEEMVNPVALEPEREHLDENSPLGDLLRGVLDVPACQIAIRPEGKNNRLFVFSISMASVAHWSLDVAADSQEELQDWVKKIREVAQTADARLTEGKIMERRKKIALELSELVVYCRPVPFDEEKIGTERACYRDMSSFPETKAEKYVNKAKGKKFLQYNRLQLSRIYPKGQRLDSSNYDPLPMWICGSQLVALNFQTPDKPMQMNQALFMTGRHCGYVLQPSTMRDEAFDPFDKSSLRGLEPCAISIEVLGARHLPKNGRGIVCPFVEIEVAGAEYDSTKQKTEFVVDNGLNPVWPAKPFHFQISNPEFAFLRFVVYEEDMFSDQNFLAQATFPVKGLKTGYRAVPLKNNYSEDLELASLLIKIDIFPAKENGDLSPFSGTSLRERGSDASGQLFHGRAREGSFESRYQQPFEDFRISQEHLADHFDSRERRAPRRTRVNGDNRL

B1: FGFR1-1p kinase domain (pY766) (domain or fragment, UniProt P11362 458-774, looked up)
chain: AGVSEYELPEDPRWELPRDRLVLGKPLGEGCFGQVVLAEAIGLDKDKPNRVTKVAVKMLKSDATEKDLSDLISEMEMMKMIGKHKNIINLLGACTQDGPLYVIVEYASKGNLREYLQARRPPGLEYCYNPSHNPEEQLSSKDLVSCAYQVARGMEYLASKKCIHRDLAARNVLVTEDNVMKIADFGLARDIHHIDYYKKTTNGRLPVKWMAPEALFDRIYTHQSDVWSFGVLLWEIFTLGGSPYPGVPVEELFKLLKEGHRMDKPSNCTNELYMMMRDCWHAVPSQRPTFKQLVEDLDRIVALTSNQEYLDLSMPLD
modifications: phosphotyrosine at 766
notes: fibroblast growth factor receptor 1 (FGFR1), kinase domain with the C-terminal tail holding pY766; see the Supplemental Experimental Procedures
B2: PLCγ1 PLC-core (residues 13−1215, Δ488–933, H335A) (domain or fragment)
chain: GPGAPSDAEVLHLCRSLEVGTVMTLFYSKKSQRPERKTFQVKLETRQITWSRGADKIEGAIDIREIKEIRPGKTSRDFDRYQEDPAFRPDQSHCFVILYGMEFRLKTLSLQATSEDEVNMWIKGLTWLMEDTLQAPTPLQIERWLRKQFYSVDRNREDRISAKDLKNMLSQVNYRVPNMRFLRERLTDLEQRSGDITYGQFAQLYRSLMYSAQKTMDLPFLEASTLRAGERPELCRVSLPEFQQFLLDYQGELWAVDRLQVQEFMLSFLRDPLREIEEPYFFLDEFVTFLFSKENSVWNSQLDAVCPDTMNNPLSHYWISSSANTYLTGDQFSSESSLEAYARCLRMGCRCIELDCWDGPDGMPVIYHGHTLTTKIKFSDVLHTIKEHAFVASEYPVILSIEDHCSIAQQRNMAQYFKKVLGDTLLTKPVEISADGLPSPNQLKRKILIKHKKLAEGSAYEEVPTSMMYSENDISDARLTEGKIMERRKKIALELSELVVYCRPVPFDEEKIGTERACYRDMSSFPETKAEKYVNKAKGKKFLQYNRLQLSRIYPKGQRLDSSNYDPLPMWICGSQLVALNFQTPDKPMQMNQALFMTGRHCGYVLQPSTMRDEAFDPFDKSSLRGLEPCAISIEVLGARHLPKNGRGIVCPFVEIEVAGAEYDSTKQKTEFVVDNGLNPVWPAKPFHFQISNPEFAFLRFVVYEEDMFSDQNFLAQATFPVKGLKTGYRAVPLKNNYSEDLELASLLIKIDIFPAK

Assays:
[1] = target: PLCγ1 PLC-core (residues 13−1215, Δ488–933, H335A) (human) (UniProt P19174); assay: ITC; cSH2 domain in the syringe, PLC-core in the cell
FGFR1 kinase domain = FGFR1 kinase domain (UniProt P11362); assay: ITC, two-site fit; conditions: reference: nonphosphorylated wild-type nSH2-cSH2; sites Y783
[2] = target: PLCγ1 specific array of domains (γSA), wild type (human); assay: ITC; FGFR1-1p in the syringe, PLCγ1 construct in the cell; corrected for heat of dilution; fit to a two-site model (nSH2-cSH2 constructs) or a one-site model (γSA)
[3] = target: T1, PLCγ1 nSH2-cSH2 Y771F,Y775F (545–790) …; assay: as above; conditions: both partners purified
[4] = target: T2, PLCγ1 tandem nSH2-cSH2 domains, wild …; assay: as above; conditions: both partners purified
[5] = target: T3, PLCγ1 cSH2 domain, wild type (human); assay: NMR titration; 15N-labelled spPH, nSH2 or cSH2 domain observed by 1H-15N HSQC, unlabelled PLC-core (H335A) added up to 1:1; 25°C; for cSH2 then the phosphopeptide NPGFpYVEANPMP to 1:1:1

Molecule	Kd [1]	dH [1]	stoichiometry N [1]	also measured
PLCγ1 cSH2 domain N728D (domain or fragment)	49.5 µM	-1.43 kcal/mol	1.17	–
PLCγ1 cSH2 domain S729Y (domain or fragment)	61.3 µM	-1.45 kcal/mol	1	–
PLCγ1 cSH2 domain, wild type (domain or fragment)	23.9 µM	0.587 kcal/mol	1.14	–
PLCγ1 nSH2-cSH2 tandem, 545-790 (from UniProt P19174) nSH2-cSH2 Y771F,Y775F phosphorylated at Y783	–	–	–	KD (FGFR1 kinase domain): weaker; reference 0.005 ± 0.001
B1	–	–	–	Kd [2]: 0.185 µM; dH [2]: -7.09 kcal/mol; stoichiometry N [2]: 1.03; dH, first binding event [3]: -8.307 ± 0.025 kcal/mol; dH, second binding event [3]: 37.7 ± 5.13 kcal/mol; dH, first binding event [4]: -6.5 ± 0.183 kcal/mol; dH, second binding event [4]: 7.12 ± 0.23 kcal/mol
B2	–	–	–	Kd [5]: 25 µM
